Experimental data from patent US20100048677A1 (NEW YORK BLOOD CENTER, published 2010).

What follows are substances tested against αIIb (INTEGRIN, ALPHA 2B; PLATELET GLYCOPROTEIN IIB OF IIB/IIIA COMPLEX, ANTIGEN CD41) (human) (UniProt P08514) (assay: αIIb complexes captured, mass spectrometry; No. Expts 1).

HOMER HOMOLOG 3 (DROSOPHILA), sequence (Q9NSC5 whole entry): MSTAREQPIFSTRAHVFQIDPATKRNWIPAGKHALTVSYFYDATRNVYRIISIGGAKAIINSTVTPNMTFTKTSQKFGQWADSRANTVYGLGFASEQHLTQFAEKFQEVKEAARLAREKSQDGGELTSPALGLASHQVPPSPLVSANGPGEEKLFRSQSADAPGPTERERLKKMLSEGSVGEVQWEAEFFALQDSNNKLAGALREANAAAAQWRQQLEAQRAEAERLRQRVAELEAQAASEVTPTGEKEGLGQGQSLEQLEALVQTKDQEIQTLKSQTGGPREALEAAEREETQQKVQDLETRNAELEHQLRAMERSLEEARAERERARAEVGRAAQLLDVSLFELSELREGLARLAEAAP

Substance | #Peptides [peptides]
ALPHA-2-MACROGLOBULIN (from UniProt P01023 24-1474) | 2
U2(RNU2) SMALL NUCLEAR RNA AUXILIARY FACTOR 1 (from UniProt Q01081 2-240) | 1
HOMER HOMOLOG 3 (DROSOPHILA) (from UniProt Q9NSC5 1-361) | 1
SPLICING FACTOR 1 (from UniProt Q15637 2-639) | 4
PROTEIN KINASE, AMP-…, GAMMA 1 NON-… SUBUNIT (from UniProt P54619 1-331) | 12
SIN3A-ASSOCIATED PROTEIN, 130 kDa (from UniProt Q9H0E3 1-1048) | 5
CORTACTIN (from UniProt Q14247 1-550) | 5
ATP SYNTHASE, H+ TRANSPORTING, MITOCHONDRIAL F1 COMPLEX, ALPHA SUBUNIT 1, CARDIAC MUSCLE (from UniProt P25705 44-553) | 2
KIAA0895 PROTEIN (from UniProt Q8NCT3 1-520) | 3
N-ACETYLGLUCOSAMINE KINASE (from UniProt Q9UJ70 2-344) | 4
CHD9 (HYPOTHETICAL PROTEIN BC022889) (from UniProt Q3L8U1 1-2897) | 7
TRANSLOCASE OF INNER MITOCHONDRIAL MEMBRANE 50 HOMOLOG (from UniProt Q3ZCQ8 45-353) | 4
UDP-GLUCOSE PYROPHOSPHORYLASE 1 (from UniProt Q16851 1-508) | 13
RAB … LYSOSOMAL PROTEIN-LIKE 1 (from UniProt Q5EBL4 1-403) | 7
CORONIN, ACTIN BINDING PROTEIN, 1A (from UniProt P31146 2-461) | 2
SRY (SEX … REGION Y)-BOX 6 (from UniProt P35712 1-828) | 2
NON-POU DOMAIN CONTAINING, OCTAMER-BINDING (from UniProt Q15233 1-471) | 32
REGULATION OF NUCLEAR pre-mRNA DOMAIN CONTAINING 1A (from UniProt Q96P16 2-312) | 7
…, DSH HOMOLOG 2 (DROSOPHILA) (from UniProt O14641 1-736) | 3
MYELOPEROXIDASE (from UniProt P05164 165-745) | 3
KERATIN 19 (from UniProt P08727 1-400) | 3
POLYMERASE (DNA-DIRECTED), DELTA … PROTEIN 2 (from UniProt Q9Y2S7 52-368) | 11
LECTIN, MANNOSE-BINDING, 1 (from UniProt P49257 31-510) | 16

Substance | #Peptides [peptides]
ALDO-KETO REDUCTASE FAMILY 7, MEMBER A2 (AFLATOXIN ALDEHYDE REDUCTASE) (from UniProt O43488 39-359) | 19
PROTEIN PHOSPHATASE 1, … SUBUNIT, ALPHA ISOFORM (from UniProt P62136 2-330) | 2
… EXPRESSED 10 (from UniProt Q86TG7 1-708) | 3
DEHYDROGENASE E1 AND TRANSKETOLASE DOMAIN CONTAINING 1 (from UniProt Q96HY7 1-919) | 25
C5orf25 (FLJ44216 PROTEIN) (from UniProt Q8NDZ2 1-872) | 4
PYRUVATE KINASE, MUSCLE (from UniProt P14618 2-531) | 13
COILED-COIL DOMAIN CONTAINING 50 (from UniProt Q8IVM0 2-306) | 7
RAN BINDING PROTEIN 10 (from UniProt Q6VN20 2-620) | 2
GEPHYRIN (from UniProt Q9NQX3 1-736) | 12
TUBULIN, BETA 4 (from UniProt P04350 1-444) | 14
HTRA SERINE … 2 (from UniProt O43464 134-458) | 8
PEROXIREDOXIN 3 (from UniProt P30048 62-256) | 4
… CYCLASE 6 (from UniProt O43306 1-1168) | 4
RAVER1 (from UniProt Q8IY67 2-606) | 2
HEAT SHOCK 70 kDa PROTEIN 9B (MORTALIN-2) (from UniProt P38646 47-679) | 11
NUDIX (NUCLEOSIDE DIPHOSPHATE LINKED MOIETY X)-TYPE MOTIF 19 (from UniProt A8MXV4 1-375) | 10
ISOCITRATE DEHYDROGENASE 3 (NAD+) ALPHA (from UniProt P50213 28-366) | 5
3-HYDROXY-3-METHYLGLUTARYL-COENZYME A SYNTHASE 1 (SOLUBLE) (from UniProt Q01581 1-520) | 4
ENGULFMENT AND CELL MOTILITY 1 (from UniProt Q92556 1-727) | 3
ATP CITRATE LYASE (from UniProt P53396 1-1101) | 5
…-TRNA … 2 (from UniProt Q96I59 15-477) | 2
CYCLIN B2 (from UniProt O95067 1-398) | 2
PDZ AND LIM DOMAIN 7 (ENIGMA) (from UniProt Q9NR12 1-457) | 2

Substance | #Peptides [peptides]
SEC23 HOMOLOG A (S. …) (from UniProt Q15436 2-765) | 3
CYCLIN K (from UniProt O75909 1-580) | 1
PRE-MRNA CLEAVAGE FACTOR I, 59 kDa SUBUNIT (from UniProt Q8N684 1-471) | 6
EXOSOME COMPONTENT 10 (from UniProt Q01780 1-885) | 9
CARS2 (HYPOTHETICAL PROTEIN FLJ12118) (from UniProt Q9HA77 1-564) | 9
HEAT SHOCK 70 kDa PROTEIN 1A (from UniProt P0DMV8 2-641) | 15
CITRON (RHO-…, SERINE/THREONINE KINASE 21) (from UniProt O14578 1-2027) | 4
EUKARYOTIC ELONGATION FACTOR-2 KINASE (from UniProt O00418 2-725) | 4
PATCHED DOMAIN CONTAINING 2 (from UniProt Q9P2K9 1-1392) | 2
SEMENOGELIN I (from UniProt P04279 24-462) | 3
ZINC FINGER PROTEIN 300 (from UniProt Q96RE9 1-604) | 3
CHAPERONIN CONTAINING TCP1, SUBUNIT 7 (ETA) (from UniProt Q99832 1-543) | 11
ADP-… GLUCOKINASE (from UniProt Q9BRR6 23-497) | 9
CULLIN 5 (from UniProt Q93034 1-780) | 5
HETEROGENEOUS NUCLEAR RIBONUCLEOPROTEIN H1 (from UniProt P31943 1-449) | 9
FOUR AND A HALF LIM DOMAINS 1 (from UniProt Q13642 2-323) | 5
PROTEIN PHOSPHATASE 1, REGULATORY (INHIBITOR) SUBUNIT 9A (from UniProt Q9ULJ8 1-1098) | 6
SEC13-LIKE 1 (S. …) (from UniProt P55735 2-322) | 3
FERM AND PDZ DOMAIN CONTAINING 1 (from UniProt Q5SYB0 1-1578) | 4
SODIUM CHANNEL, VOLTAGE-GATED, TYPE X, ALPHA (from UniProt Q9Y5Y9 1-1956) | 11
CASEIN KINASE 2, ALPHA PRIME PO… (from UniProt P19784 1-350) | 3
KERATIN 16 (FOCAL NON-EPIDERMOLYTIC PALMOPLANTAR KERATODERMA) (from UniProt P08779 1-473) | 28
ATP-BINDING CASSETTE, SUB-FAMILY A (ABC1), MEMBER 13 (from UniProt Q86UQ4 1-5058) | 2

Substance | #Peptides [peptides]
CNDP … 2 (METALLO… M20 FAMILY) (from UniProt Q96KP4 2-475) | 6
STATHMIN-LIKE 3 (from UniProt Q9NZ72 1-180) | 2
GLUTAMATE RECEPTOR, IONOTROPIC, N-METHYL D-… 2D (from UniProt O15399 28-1336) | 2
TRYPTOPHANYL TRNA … 2 (from UniProt Q9UGM6 19-360) | 5
HYPOTHETICAL PROTEIN FLJ22184 | 4
ACTININ, ALPHA 3 (from UniProt Q08043 1-901) | 8
KINESIN FAMILY MEMBER 14 (from UniProt Q15058 1-1648) | 7
…-3-PHOSPHATE DEHYDROGENASE (from UniProt P04406 2-335) | 3
SERPINE1 MRNA BINDING PROTEIN 1 (from UniProt Q8NC51 2-408) | 6
… (from UniProt P02787 20-698) | 7
TUBULIN, BETA 2C (from UniProt P68371 1-445) | 36
MALIC ENZYME 2, NAD(+)-…, MITOCHONDRIAL (from UniProt P23368 19-584) | 20
AMINOLEVULINATE, DELTA-, … (from UniProt P13716 1-330) | 8
HEAT SHOCK 70 kDa PROTEIN 1B (from UniProt P0DMV9 2-641) | 15
DEAH (ASP-GLU-ALA-HIS) BOX PO… 38 (from UniProt Q92620 2-1227) | 3
LOC731751 (UNKNOWN PROTEIN) | 15
CHAPERONIN CONTAINING TCP1, SUBUNIT 4 (DELTA) (from UniProt P50991 2-539) | 8
UBR4 (ZINC FINGER, UBR1 TYPE 1) (from UniProt Q5T4S7 1-5183) | 8
ZINC FINGER PROTEIN 703 (from UniProt Q9H7S9 2-590) | 2
…-… 9 (from UniProt Q86TI2 2-863) | 20
ATAXIN 2-LIKE (from UniProt Q8WWM7 1-1075) | 8
